In US10017580B2, “Humanized anti-Tn-MUC1 antibodies and their conjugates” (ADC THERAPEUTICS S.A., priority 2014, dated 2018):

B1: Ab6: anti-Tn MUC 1 antibody comprising a VH domain according to SEQ ID NO. 28 and a VL domain according to SEQ ID NO. 33 (antibody, V domains shown)
VH: EVQLVESGAEVKKPGASVEVSCQASGYTFTDHAIHWVRQAPGQGLEWMGHFSPGNTDIKYNDKFKGRVTMTVDRSINTAYMELRRLRSDDTAVYYCKTSTFFFDYWGQGTMVTVSS
VL: DIVMTQSPLSLPVTPGEPASISCKSSQSLLNSGDQKNYLTWYLQKPGQSPQLLIYWASTRESGVPDRFSGSGSGTDFTLKISRVEAEDVGVYYCQNDYSYPLTFGGGTKVEIK
modifications: Synthetic sequence: Humanized antibody heavy chain variable region 5E5RHC9; Synthetic sequence: Humanized antibody light chain variable region 5E5RKB
B2: Ab5: anti-Tn MUC 1 antibody comprising a VH domain according to SEQ ID NO. 19 and a VL domain according to SEQ ID NO. 33 (antibody, V domains shown)
VH: EVQLVQSGAEVKKPGESLKISCKISGYIFTDHAIHWVRQMPGKGLEWMGHFSPGNTDIKYNDKFKGQVTLSVDRSINTAYLQWSSLKASDTAIYFCKTSTFFFDYWGQGTRVTVSS
VL: B1 VL
modifications: Synthetic sequence: Humanized antibody heavy chain variable region 5E5RHB10; Synthetic sequence: Humanized antibody light chain variable region 5E5RKB
B3: Ab4: anti-Tn MUC 1 antibody comprising a VH domain according to SEQ ID NO. 9 and a VL domain according to SEQ ID NO. 33 (antibody, V domains shown)
VH: QVQLVQSGAEVKKTGSSVKVSCKASGYTFTDHAIHWVRQAPGQALEWMGHFSPGNTDIKYNDKFKGRVTLTVDRSMSTAYMELSSLRSEDTAMYYCKTSTFFFDYWGQGTMVTVSS
VL: B1 VL
modifications: Synthetic sequence: Humanized antibody heavy chain variable region 5E5RHA8; Synthetic sequence: Humanized antibody light chain variable region 5E5RKB

Assays:
Tn-MUC1 (16TR-MUC1-Tn) = experiment: Tn-MUC1 binding ELISA (protocol 4); design: species or system human; details: for Tn-MUC1 binding EC50: ELISA on 16TR-MUC1-Tn coated plate
Sequence of Tn-MUC1 (16TR-MUC1-Tn) (P15941 141-460 limits assumed): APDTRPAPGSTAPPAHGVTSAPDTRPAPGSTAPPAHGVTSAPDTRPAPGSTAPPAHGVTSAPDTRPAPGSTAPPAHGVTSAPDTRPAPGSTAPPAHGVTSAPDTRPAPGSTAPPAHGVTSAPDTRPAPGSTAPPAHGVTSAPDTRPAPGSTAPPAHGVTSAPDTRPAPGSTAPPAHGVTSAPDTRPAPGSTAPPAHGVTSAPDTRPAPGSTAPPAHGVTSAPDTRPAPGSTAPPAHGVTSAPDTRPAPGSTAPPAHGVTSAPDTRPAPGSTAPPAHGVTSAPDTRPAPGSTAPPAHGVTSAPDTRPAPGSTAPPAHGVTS

[1] = tested on: ZR-75-1 cell line, which expresses Tn-MUC1; experiment: ZR-75-1 cell binding assay by flow cytometry (protocol 6); details: for ZR-75-1 cell binding EC50: flow cytometry, live cells
Method: Protocol 6: ZR-75-1 Cell Binding Assay by Flow Cytometry Materials • Wash solution: PBS 0.1% (w/v) sodium azide • Binding buffer: PBS, 10% normal goat serum, 0.1% (w/v) sodium azide) • 96 well U-well microplate Protocol
Exponentially growing cells are suspended by incubation with cell dissociation buffer enzyme-free, Hanks-based (Gibco 13150-016) following the manufacturer's instructions. A cell count/viability is done on a dilution of 10 ul cells+Trypan Blue, 10 ul, with a haemocytomer. The suspension is centrifuged and the cell pellet re-suspended in binding buffer at 3×10^6 per ml. If significant levels of aggregates are present in the cell count, the suspension is filtered to remove aggregates. The cell suspension is dispensed (50 ul/well) in 96 well U-bottom plates and cooled on ice for 10 minutes. Primary antibody (50 ul/well) diluted in binding buffer (typically 1 ug per ml or less) is added to each well and incubated at 4° C. for 1 hour. The microplate is centrifuged 5 min at 300-400 g at 4° C., flicked to remove the supernatant and then the cell pellet re-suspended in 200 uL of wash buffer (PBS, 0.1% sodium azide). Centrifugation and re-suspension are done 4 times in all. After the last centrifugation, cells are re-suspended in 50 uL of binding buffer containing the biotin labelled conjugate 1:250 (kept at −20 C: Biotin-SP-AffiniPure F(ab′)2 Fragment Goat antihuman IgG (H+L); Jackson 109-066-088). Cells are incubated for 1 hour at 4 C, then washed 4 times as before. Cells are resuspended in 50 ul of binding buffer containing Streptavidin, Alexa Fluor® 488 conjugate (Life Technologies s11223) diluted 1:250 and Fixable Viability Dye eFluor® 780 (eBioscience 65-0865) diluted 1:2000, The cells are incubated at 4° C. for 1 hour and then washed 3 times, as above. Cells are then re-suspended in PBS if reading immediately or fixed in 100 ul of paraformaldehyde (2% (w/v) in PBS) and analysed with by flow cytometer (Accuri C6), gating on live cells which have a lower Fixable Viability Dye MFI compared to dead cells.
IgG binding potency to Tn-MUC1 was measured as per protocol 4 and binding to the ZR-75-1 cell line, which expresses Tn-MUC1, was measured as per protocol 6.

[2] = Thermal denaturation assay (protocol 5); format: physicochemical; details: 50% inactivation temperature, 10 minutes heating, read by antigen-binding ELISA

| Molecule | Tn-MUC1 binding EC50 (Tn-MUC1 (16TR-MUC1-Tn)) [µg/mL] | TnMUC1 binding potency compared with mouse 5E5 (in words) (Tn-MUC1 (16TR-MUC1-Tn); Tn-MUC1 binding assay data) | ZR-75-1 cell binding EC50 [1] [µg/mL] | ZR-75-1 binding potency compared with mouse 5E5 (in words) ([1]; flow cytometry EC50 data) | Tm [2] [°C] |
| --- | --- | --- | --- | --- | --- |
| B1 | 0.0198 | substantially improved over the mouse 5E5 | 0.0413 | – | – |
| B2 | 0.02687 | – | 0.01842 | substantially improved over the mouse 5E5 | 62.58 |
| B3 | 0.07549 | – | 0.04229 | – | 65.23 |
